Biological target: T1, His6UL36^USP (Human herpesvirus 1, UniProt P10220)
T1 construct: amino acids 1 to 533 of the UL36 gene product from HHV HSV1; 6-His (pET-28a(+)) (N); 6-His (pET-28a(+)) (C); made in house; host or cells: E. coli BL21 or BL21 RIPL
Test: Cleavage of Ub-AMC by recombinant UL36^USP
Type: biochemical, HSV-1
Conditions: ~0.1 pmol enzyme, Ub-AMC, 25° C.
Experimental: Recombinant UL36^USP and UL36^USP/C65A (˜0.1 pmol) were incubated in 125 μl kinetics buffer (50 mM HEPES, pH 7.5, 0.5 mM EDTA) supplemented with 1 mM DTT at room temperature for 10 minutes. To this was added 75 μl of Ub-AMC (250 nM in kinetics buffer) and AMC liberation was measured at 25° C. For inhibition experiments, one of UbVME, SUMO-VME, ISG15-VS, or Nedd8-VS (10 pmol) was incubated with recombinant UL36^USP (˜0.1 pmol) for 30 minutes at room temperature. To this was added 75 μl of Ub-AMC (250 nM in kinetics buffer) and AMC liberation was measured. Cleavage experiments were performed in triplicate. All fluorescence measurements were made using a Wallac Victor^3 1420 fluorescence/luminescence plate reader (Perkin Elmer) using 380 nm excitation and 460 nm emission wavelengths, with 5 second intervals between measurements. Data were exported as an Excel file and plotted as mean values of replicate experiments using Kaleidagraph v3.6 (Synergy Software).
In a typical eukaryotic cell, the presence of multiple DUBs, whose substrate pool and catalytic activities may overlap, confounds straightforward analysis of the activity of any one particular DUB. […] The proteins were expressed, purified over Ni-NTA resin and evaluated for their ability to cleave Ub C-terminal 7-amido-4-methylcoumarin (Ub-AMC) (Dang et al., 1998). […]

B1: His6UL36^USP: His-tagged recombinant 533 N-terminal amino acids of HSV-1 UL36, ubiquitin-specific cysteine protease (protein)
chain: MGGGNNTNPGGPVHKQAGSLASRAHMIAGTPPHSTMERGGDRDIVVTGARNQFAPDLEPGGSVSCMRSSLSFLSLIFDVGPRDVLSAEAIEGCLVEGGEWTRATAGPGPPRMCSIVELPNFLEYPGARGGLRCVFSRVYGEVGFFGEPAAGLLETQCPAHTFFAGPWALRPLSYTLLTIGPLGMGLFRDGDTAYLFDPHGLPEGTPAFIAKVRAGDMYPYLTYYTRDRPDVRWAGAMVFFVPSGPEPAAPADLTAAALHLYGASETYLQDEAFSERRVAITHPLRGEIAGLGEPCVGVGPREGVGGPGPHPPTAAQSPPPTRARRDDRASETSRGTAGPSAKPEAKRPNRAPDDVWAVALKGTPPTDPPSADPPSADPPSAIPPPPPSAPKTPAAEAAEEDDDDMRVLEMGVVPVGRHRARYSAGLPKRRRPTWTPPSSVEDLTSGEKTKRSAPPAKTKKKSTPKGKTPVGAAVPASVPEPVLASAPPDPAGPPVAEAGEDDGPTVPASSQALEALKTRRSPEPPGADLAQLF
modifications: left off: small tags and cut ends
notes: His-tagged recombinant 533 N-terminal amino acids of HSV-1 UL36, ubiquitin-specific cysteine protease
Turnover number for Ub-AMC cleavage: ~6 min⁻¹

Reference: US20070092942A1, “Ubiquitin specific enzymes of family herpesviridae” (priority 2005, published 2007)
